77 sequences from the supplement of paper PMC7877785 can be followed below.

± gives the uncertainty stated by the source.

A short description of the data set: self-splicing fitness, log relative to wild type (ln ratio); higher = more splicing; Tetrahymena group I intron in knt gene, E. coli kanamycin selection, DiMSum; sequences stand for … in CUCUCU…GGAGGGAAAAGUUAUCAGGCAUGCACCUGGUAGCUAGUCUUUAAACCAAUAGAUUGCAUCGGUUUAAAAGGCAAGACCGUCAAAUUGCGGGAAAGGGGUCAACAGCCGUUCAGUACCAAGUCUCAGGGGAAACUUUGAGAUGGCCUUGCAAAGGGUAUGGUAAUAAGCUGACGGACAUGGUCCUAACCACGCAGCCAAGUCCUAAGUCAACAGAUCUUCUGUUGAUAUGGAUGCAGUUCACAGACUAAAUGUCGGUCGGGGAAGAUGUAUUCUUCUCAUAAGAUAUAGUCGGACCUCUCCUUAAUGGGAGCUAGCGGAUGAAGUGAUGCAACACUGGAGCCGCUGGGAACUAAUUUGUAUGCGAAAGUAUAUUGAUUAGUUUUGGAGUACUCGUGGUCG
In outline: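 The eight P1ex-region nucleotides of an intron in the knt kanamycin-resistance gene on pET-22b(+) were all randomised and the library put into E. coli BL21(DE3). Six replicate transformations were grown overnight at 37°C or 30°C on LB agar with or without 25 μg/mL kanamycin, together with 100 μg/mL carbenicillin, 50 μM IPTG and 0.2% rhamnose. Colonies were pooled and amplicon-sequenced on an Illumina HiSeq 2500. Fitness from DiMSum is the error-weighted combination of wild-type-normalised replicate fold changes, kanamycin over none.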

Consider CUCGAGCAAUAUUACGUUGA, for which the “self-splicing fitness (ln)” value by setting is: (30 °C) -3.86 ± 0.28; (37 °C) -2.63 ± 0.38.
Consider CCUAAGCAAUAUUACGAUCA, for which the “self-splicing fitness (ln)” value is, setting by setting: (30 °C) -3.57 ± 0.28; (37 °C) -3 ± 0.25.
ACGAAGCAAUAUUACGAAUU: the “self-splicing fitness (ln)” value is -3.63 ± 0.17 (30 °C) and -2.37 ± 0.15 (37 °C).
Turning to CAUCAGCAAUAUUACGAGAG, the “self-splicing fitness (ln)” value by setting is: (30 °C) -1.9 ± 0.072; (37 °C) -0.955 ± 0.075.
Taken in the same sequence, the figures for CAGUAGCAAUAUUACGCUCU were -2.44 ± 0.18 and -0.957 ± 0.15.
For the sequence GGUAAGCAAUAUUACGACCU, the “self-splicing fitness (ln)” value (30 °C) is -1.81 ± 0.18 and the “self-splicing fitness (ln)” value (37 °C) is -1.93 ± 0.24.
For CACGAGCAAUAUUACGAUCC, the “self-splicing fitness (ln)” value (37 °C) is -1.9 ± 0.47.
In the case of AGCGAGCAAUAUUACGACGG, the “self-splicing fitness (ln)” value by setting is: (30 °C) -3.17 ± 0.44; (37 °C) -1.81 ± 0.26.
Regarding AUUGAGCAAUAUUACGCCCU, the “self-splicing fitness (ln)” value (30 °C) is -2.51 ± 0.24 and the “self-splicing fitness (ln)” value (37 °C) is -0.951 ± 0.21.
Taken in the same sequence, the figures for AUGCAGCAAUAUUACGCCUU were -0.919 ± 0.072 and -0.304 ± 0.095.
On to AAGGAGCAAUAUUACGACCA, for which, for the setting “37 °C”, the “self-splicing fitness (ln)” value is -1.82 ± 0.31.
Take CAAGAGCAAUAUUACGAAAG: the “self-splicing fitness (ln)” value is -1.52 ± 0.12 (30 °C) and -1.64 ± 0.16 (37 °C).
Taken in the same sequence, the figures for GUUUAGCAAUAUUACGUCGU were -0.72 ± 0.21 and -0.885 ± 0.21.
As to ACUCAGCAAUAUUACGAGGU, the “self-splicing fitness (ln)” value is -3.47 ± 0.18 (30 °C) and -1.68 ± 0.17 (37 °C).
Turning to GUACAGCAAUAUUACGGAAU, the “self-splicing fitness (ln)” value is, setting by setting: (30 °C) -2.76 ± 0.11; (37 °C) -1.46 ± 0.12.
In the same order, the values of ACAUAGCAAUAUUACGUCUA are -2.05 ± 0.096 and -1.1 ± 0.083.
Taken in the same sequence, the figures for CUGCAGCAAUAUUACGAUAU were -3.64 ± 0.28 and -2.41 ± 0.3.
Turning to GUCGAGCAAUAUUACGGAUA, for the setting “37 °C”, the “self-splicing fitness (ln)” value is -1.25 ± 0.27.
Consider AAUGAGCAAUAUUACGUUAA, for which the “self-splicing fitness (ln)” value (30 °C) was -2.76 ± 0.18 and the “self-splicing fitness (ln)” value (37 °C) is -1.72 ± 0.17.
In the same order, the values of ACUUAGCAAUAUUACGAUGU are -1.78 ± 0.08 and -1.36 ± 0.11.
Regarding GUUAAGCAAUAUUACGAUGG, the “self-splicing fitness (ln)” value (37 °C) is -1.77 ± 0.23.
In the case of CCCGAGCAAUAUUACGAAUG, the “self-splicing fitness (ln)” value reads like this: (30 °C) -2.61 ± 0.18; (37 °C) -1.41 ± 0.22.
In the same order, the values of AUAAAGCAAUAUUACGGAUC are -1.55 ± 0.13 and -0.273 ± 0.15.
In the same order, the values of CGUAAGCAAUAUUACGAUAG are -1.72 ± 0.093 and -0.661 ± 0.11.
In the same order, the values of AACGAGCAAUAUUACGUUUA are -3.12 ± 0.2 and -2.64 ± 0.21.
Take GCUAAGCAAUAUUACGGCUG: the “self-splicing fitness (ln)” value (30 °C) is -2.83 ± 0.15 and the “self-splicing fitness (ln)” value (37 °C) was -2.03 ± 0.18.
In the same order, the values of AUCAAGCAAUAUUACGCUCA are 0.0216 ± 0.073 and 0.342 ± 0.096.
Consider GGGCAGCAAUAUUACGUUCU, for which the “self-splicing fitness (ln)” value reads like this: (30 °C) -2.35 ± 0.19; (37 °C) -1.2 ± 0.14.
Taken in the same sequence, the figures for GCCAAGCAAUAUUACGCUUU were -0.998 ± 0.051 and -1.18 ± 0.072.
Taken in the same sequence, the figures for UGCUAGCAAUAUUACGGGCC were -1.55 ± 0.14 and -1.33 ± 0.15.
Take CCACAGCAAUAUUACGCCAA: the “self-splicing fitness (ln)” value is -2.96 ± 0.2 (30 °C) and -2.1 ± 0.23 (37 °C).
Taken in the same sequence, the figures for CCUCAGCAAUAUUACGGUUG were -2.28 ± 0.085 and -0.828 ± 0.094.
In the same order, the values of AGAGAGCAAUAUUACGCUCA are -2.44 ± 0.27 and -1.11 ± 0.21.
Taken in the same sequence, the figures for CGCUAGCAAUAUUACGCACC were -1.98 ± 0.18 and -1 ± 0.23.
On to GAAAAGCAAUAUUACGGAUA, for which the “self-splicing fitness (ln)” value is -1.32 ± 0.13 (30 °C) and -1.18 ± 0.12 (37 °C).
Taken in the same sequence, the figures for GUGUAGCAAUAUUACGGGGA were -1.9 ± 0.28 and -2.41 ± 0.25.
In the same order, the values of ACUGAGCAAUAUUACGCAAG are -2.68 ± 0.28 and -1.54 ± 0.19.
Consider AGACAGCAAUAUUACGUCUA, for which the “self-splicing fitness (ln)” value is, setting by setting: (30 °C) -1.31 ± 0.097; (37 °C) -0.608 ± 0.099.
With UCAGAGCAAUAUUACGCCAU, the “self-splicing fitness (ln)” value (37 °C) is -1.91 ± 0.29.
On to GACUAGCAAUAUUACGAUGA, for which the “self-splicing fitness (ln)” value (30 °C) was -0.535 ± 0.1 and the “self-splicing fitness (ln)” value (37 °C) is -1.08 ± 0.08.
As to UCUUAGCAAUAUUACGAACG, the “self-splicing fitness (ln)” value (30 °C) is -0.815 ± 0.15 and the “self-splicing fitness (ln)” value (37 °C) was -1 ± 0.2.
With GAGUAGCAAUAUUACGCACG, where the note is “30 °C”, the “self-splicing fitness (ln)” value is -1.77 ± 0.21.
With CCAAAGCAAUAUUACGACCA, the “self-splicing fitness (ln)” value (30 °C) was -3.08 ± 0.34 and the “self-splicing fitness (ln)” value (37 °C) is -1.78 ± 0.45.
In the same order, the values of UACCAGCAAUAUUACGAGAC are -2.38 ± 0.18 and -1.54 ± 0.2.
In the same order, the values of ACUGAGCAAUAUUACGUCCU are -2.07 ± 0.11 and -0.865 ± 0.12.
Taken in the same sequence, the figures for AUUCAGCAAUAUUACGUAUG were -2.34 ± 0.13 and -0.383 ± 0.12.
For the sequence GCAAAGCAAUAUUACGCUCC, the “self-splicing fitness (ln)” value (30 °C) was -3.61 ± 0.34 and the “self-splicing fitness (ln)” value (37 °C) was -3.03 ± 0.43.
In the same order, the values of CAGAAGCAAUAUUACGUGCU are -2.7 ± 0.17 and -1.23 ± 0.14.
In the same order, the values of UGAGAGCAAUAUUACGCGAA are -4.25 ± 0.4 and -1.53 ± 0.28.
Regarding GUCGAGCAAUAUUACGAUCU, the “self-splicing fitness (ln)” value by setting is: (30 °C) -2.87 ± 0.18; (37 °C) -0.451 ± 0.12.
In the same order, the values of CAGCAGCAAUAUUACGGUAG are -0.155 ± 0.087 and 0.0584 ± 0.11.
UAAAAGCAAUAUUACGUCGG: the “self-splicing fitness (ln)” value (30 °C) is -0.992 ± 0.097 and the “self-splicing fitness (ln)” value (37 °C) is -0.876 ± 0.12.
In the same order, the values of GAAAAGCAAUAUUACGGGGG are -3.11 ± 0.21 and -1.15 ± 0.17.
For the sequence UUUUAGCAAUAUUACGAGGG, the “self-splicing fitness (ln)” value (30 °C) is -2.9 ± 0.42.
UGAAAGCAAUAUUACGGAGU: the “self-splicing fitness (ln)” value runs as follows: (30 °C) -3.82 ± 0.28; (37 °C) -2.84 ± 0.19.
Taken in the same sequence, the figures for ACCUAGCAAUAUUACGCUAG were -3.86 ± 0.25 and -2.79 ± 0.28.
As for GCAUAGCAAUAUUACGCUCG, the “self-splicing fitness (ln)” value was -0.827 ± 0.11 (30 °C) and -0.165 ± 0.13 (37 °C).
In the same order, the values of UCAUAGCAAUAUUACGCUGC are -3.13 ± 0.31 and -2.52 ± 0.41.
Taken in the same sequence, the figures for UAUUAGCAAUAUUACGUGGA were -2.75 ± 0.32 and -0.0772 ± 0.19.
In the same order, the values of AGGCAGCAAUAUUACGACAU are -0.21 ± 0.012 and -0.101 ± 0.032.
For the sequence CAUGAGCAAUAUUACGUCAC, the “self-splicing fitness (ln)” value (30 °C) was -3.36 ± 0.36.
For the sequence GACGAGCAAUAUUACGCAGA, the “self-splicing fitness (ln)” value is -3.74 ± 0.33 (30 °C) and -3.45 ± 0.42 (37 °C).
With GAUGAGCAAUAUUACGAAUG, the “self-splicing fitness (ln)” value by setting is: (30 °C) -2.71 ± 0.21; (37 °C) -2.67 ± 0.34.
For UUUCAGCAAUAUUACGUGGU, the “self-splicing fitness (ln)” value is -3.84 ± 0.2 (30 °C) and -3.02 ± 0.21 (37 °C).
In the same order, the values of UAUGAGCAAUAUUACGAAGG are -3.5 ± 0.2 and -1.4 ± 0.22.
Taken in the same sequence, the figures for CCAAAGCAAUAUUACGGGUC were -4.39 ± 0.23 and -3.1 ± 0.22.
Taken in the same sequence, the figures for ACAAAGCAAUAUUACGACGC were -0.112 ± 0.044 and 0.422 ± 0.066.
Turning to UAUGAGCAAUAUUACGAAUA, the “self-splicing fitness (ln)” value by setting is: (30 °C) -2.94 ± 0.27; (37 °C) -2.22 ± 0.21.
In the same order, the values of AAUGAGCAAUAUUACGUCUU are 0.00922 ± 0.083 and -0.0903 ± 0.096.
In the same order, the values of CAAGAGCAAUAUUACGCUAU are -3.62 ± 0.38 and -2.19 ± 0.27.
Taken in the same sequence, the figures for GCGCAGCAAUAUUACGCGAA were -0.172 ± 0.065 and -0.153 ± 0.083.
For the sequence UUCUAGCAAUAUUACGGGCA, the “self-splicing fitness (ln)” value is -0.323 ± 0.12 (30 °C) and -0.0935 ± 0.12 (37 °C).
Taken in the same sequence, the figures for AAGUAGCAAUAUUACGUCGC were -2.54 ± 0.25 and -1.8 ± 0.23.
Taken in the same sequence, the figures for GAGAAGCAAUAUUACGGAUA were -2.16 ± 0.2 and -0.942 ± 0.21.
Taken in the same sequence, the figures for UUCCAGCAAUAUUACGCGAG were -0.566 ± 0.082 and -0.29 ± 0.082.
For the sequence CCAAAGCAAUAUUACGGCCG, the “self-splicing fitness (ln)” value by setting is: (30 °C) -0.467 ± 0.1; (37 °C) -0.508 ± 0.12.
Taken in the same sequence, the figures for UGCUAGCAAUAUUACGGCUA were -0.795 ± 0.17 and 0.345 ± 0.15.
